Experimental data: US20250011448A1 (STAIDSON BIOPHARMA, published 2025)
Substitutions are numbered along the chain they refer to. Blank lines part the entries; values can stand above or below the binder they belong to.

Legend:
[1] = target: T1, human TNFR2 extracellular domain with C-terminal 10×His tag (human, UniProt P20333 23-257); assay: BLI (Octet RED96), antibody captured on AHC biosensor, His-tagged TNFR2 in solution, 1:1 model
T1 construct: also called huTNFR2-His; His-tag-huTNFR2
T1 sequence: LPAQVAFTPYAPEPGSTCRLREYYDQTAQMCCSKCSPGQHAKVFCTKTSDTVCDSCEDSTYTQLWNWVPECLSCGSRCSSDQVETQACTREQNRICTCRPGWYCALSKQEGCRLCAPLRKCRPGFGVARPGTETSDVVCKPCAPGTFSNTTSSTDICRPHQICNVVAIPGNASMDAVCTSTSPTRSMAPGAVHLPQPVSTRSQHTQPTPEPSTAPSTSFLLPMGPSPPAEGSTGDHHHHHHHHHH

[2] = target: T2, cynomolgus monkey TNFR2 extracellular domain with C-terminal 10×His tag (cynomolgus monkey, UniProt P20333 23-257 (human entry)); assay: as above
T2 construct: also called cynoTNFR2-His; His-tag-cynoTNFR2
T2 chain: T1 sequence with S16G, S36P, P117Q, N164H, E210A, S216G, M223V

[3] = target: T1, human TNFR2 extracellular domain with …; assay: ELISA, plate coated with His-tagged TNFR2 ECD, serial dilution of chimeric IgG
Method: (§1) TNFR2 binding of purified recombinant chimeric antibodies: The huTNFR2, cynoTNFR2 antigen binding ELISA was performed on the purified recombinant chimeric antibodies. Briefly, 384-well, clear, flat bottom, high binding plates (VWR, cat #29444-096) were coated overnight at 4° C. with 1 μg/mL of huTNFR2 or cynomolgus monkey TNFR2-His in PBS. After removing the coating solution, the plates were blocked by adding blocking buffer and incubated at room temperature for 1 hour. Plates were then washed 3 times with wash buffer. Serial dilution of purified antibodies in PBS was added to individual well followed by incubation at room temperature for 1 hour. Plates were washed 3 times with wash buffer. Then 50 μL/well of goat anti hu Kappa —AP (Southern Biotech, cat #2061-04) at 1:3000 dilution or goat anti human IgG Fc-AP at 1:3000 dilution in ELISA diluent was added, incubated at room temperature for 1 hour, washed 5 times with wash buffer and developed for 30 minutes with 50 μL/well of pNPP substrate. Plates were analyzed with a Bio-TEK at 405 nm. The chimeric TNFR2 antibodies were tested positive for binding to huTNFR2 and cynoTNFR2. The TNFR2 binding EC50 values are shown in Table 6, FIG. 1A (for huTNFR2) and FIG. 1B (for cynoTNFR2).

[4] = target: T2, cynomolgus monkey TNFR2 extracellular …; assay: as above
Method: as §1

B1: 29G3 chimeric anti-TNFR2 antibody (antibody, V domains shown)
VH: EVMLVESGGASVKPGGSLKLSCAASGFTFSNFAMSWVRQTPEKRLEWVATIRSGDNYSYYSDNVKGRFTISRDNARNTLYLQMSSLRSKDTSIYYCARNWDKVFDYWGQGTTLTVSS
VL: DIVLTQSPASLAVSLGQRATISCRASESVDSYGYSFMHWYQQKPGQPPKLLIYRASNLKSGIPARFSGSGSRTDFTLTINPVEADDVATYYCQQSNEDHTFGGGTKLEIK
notes: Chimeric: mouse variable domains with human constant regions, made as recombinant IgG1
Kd [1]: 4530 pM | koff [1]: 0.00114 s⁻¹ | kon [1]: 251000 M⁻¹ s⁻¹ | Kd [2]: 1590 pM | koff [2]: 0.002 s⁻¹ | kon [2]: 1.26e+06 M⁻¹ s⁻¹ | EC50 [3]: 29.3 pM | EC50 [4]: 41.4 pM

B3: 15H10 chimeric anti-TNFR2 antibody (antibody, V domains shown)
VH: DVQLQESGPGLVTPSQSLSLTCSVTGYSITSGYYWNWIRQFPGNKLEWMGYITYDGNNNYNPSLKSRFSITRDTSKNQFFLKLNSVTSEDTATYYCARGDYGDSAMDYWGQGTSVTVSS
VL: EIVLTQSPAITAASLGQKVTITCSASSGVNYMHWYQQKSGTSPKPWIYEISKLASGVPARFSGSGSGTSYSLTISSMEAEDAAIYYCQQWNYPLITFGAGTKVELK
notes: as for B1
Kd [1]: 453 pM | koff [1]: 2.58e-05 s⁻¹ | kon [1]: 57100 M⁻¹ s⁻¹ | Kd [2]: 1420 pM | koff [2]: 0.000368 s⁻¹ | kon [2]: 259000 M⁻¹ s⁻¹ | EC50 [3]: 51 pM | EC50 [4]: 50 pM

Continued, values first:

Kd [1]: 1950 pM | koff [1]: 0.000251 s⁻¹ | kon [1]: 129000 M⁻¹ s⁻¹ | Kd [2]: 1300 pM | koff [2]: 0.000534 s⁻¹ | kon [2]: 412000 M⁻¹ s⁻¹ | EC50 [3]: 39 pM | EC50 [4]: 48.8 pM
B2: 85G8.4 chimeric anti-TNFR2 antibody (antibody, V domains shown)
VH: EVQLQQSGPELVKPGASVKISCKTSGYTFTDFNMDWVKQSHGKSLEWIGYINPNNGDAAYNQKFKSKATLTVDKSSNTAYMELHSLTSDDSAVYYCARWGWAFAYWGQGTLVTVSA
VL: DIVMTQSHKIMSTSVGDRVSITCKASQDVKTAVAWYQQKPGQSPKLLIYATSYRYTGVPDRFTGSGSGTDFTFTISTVQAEDLAVYYCQQHYSIPYTFGGGTKLEIK
notes: as for B1

Kd [1]: 2460 pM | koff [1]: 0.000258 s⁻¹ | kon [1]: 105000 M⁻¹ s⁻¹ | EC50 [3]: 50.8 pM | EC50 [4]: 57 pM
B4: 11C1 chimeric anti-TNFR2 antibody (antibody, V domains shown)
VH: B3 VH with Q5R, F41I, N61D, S66N, F68I, K82T
VL: B3 VL with G28S, N30S, T73I, V103L
notes: as for B1
